Experiment: yeast display, Sf9 membrane polyspecificity reagent, FACS + sequencing; frameworks hold sequencing errors
Procedure, shortened: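 Galactose-induced (36–48 hours) yeast carrying a synthetic nanobody display library were exposed to 10% biotinylated, detergent-solubilized Sf9 membrane reagent at 4 °C for 1 hour. FACS followed streptavidin microbead enrichment, using low and high (top ~1%) gates for expression (anti-HA) and reagent binding (streptavidin). Colony PCR, MiSeq 2 × 250 sequencing and CDR-length filtering followed. Labels for polyreactivity reflect the gate of origin.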

| Sequence | polyreactivity (PSR sort gate) |
| --- | --- |
| QVQLVDSGGGLVQAGGSLRLSCAASGYTFGNNARAWYRQAPGKERELVARIRTNGGTTYYADSVKGRFTISRDNAKYTVYLQMNSLKPEDTAVYYCNAYRGYEYDYWGQGTQVTVSS | low polyreactivity |
| QVQLVESGGGLVQAGGSLRLSCAASGRIFYKYAKGWYRQAPGKERELVAAITTSGGSTYYADSVKGRFTISRDNAKNTVYLQMKSLKPEDTAVYYCARDLNGRFLTTGRGMDYWGQGTQVTVSS | high polyreactivity |
| QVQHVESRGGIVQAGGSLRLSCAASGFILYFNAMGWYRQAPGKERELVAAITSDGGSTYYADSVKGRFTISRDNAKNTVYLQMNSLKPEDTAVYYCAADASTWYTEEYWGQGTQVTVSS | low polyreactivity |
| QVQLVESGGGLVQAGGSLRLSCAASGSIFEGNGMGRYRQAPGKERELVAAITFRSGSTYYADSVKGRFTISRDNAKNTVYLQMNSLKPEDTAVYYCAADEYYQVSAYDYWGQGTQVNVSS | low polyreactivity |
| QVQLVESGGGLVQAGGSLRLSCAASGSIFQVNAMGWYRQAPGKERELVAANRSGGRTTYADSVKGRFTISRDNAKNTVYLQMISLKTEDTAVYYGAAPLYYKSWTYPRLRSGYWGQGTQVTVSS | high polyreactivity |
| QVQLVDSGGGIVQAGGSLRLSCAASGTFDAYAMGWYRQEPGKERELVASISSSGGSTYYADSVKGRFTITRDNAKNTVYLQMYSLNPEDRAVYYCAATDFWYSGYYWGKGTQVTVSS | low polyreactivity |
| QVQLVESGGGLVQAGGSLRLSCAASGFTFRRYAMGWYIQAPGKERELVAAIRSTGGSTYYADSVKGRFTISRDNAKNTVYLQMNSLKPEDTAVYYCNAGTPVRGYNYWGQGTQVTVSS | high polyreactivity |
| QVQLQVSGGGLVQAGGSLRLSCEASGSIFLTSEMGWYRQAPGIERELVAAIATGTSTNYADSVKGRFTISRDNAKNTVYLQMNSLKPEDTAVYYCATYHYWGQGTQVTVSS | low polyreactivity |
| QVQLVESGGGLVQAGGSLRLICAASGGTFNAYAMGWYRQAPGKERELVATISYSGGSTYYADSEKGRFTISRDNAKNTVYLQMNSLKPEDTAVYYCATDVYDSTPFRFDYWGQGTQVTVSS | low polyreactivity |
| QVQHVESGGGLVQAGGSLRLSCAASGSTFSRYTMGWYRQAPGKERELVAGISRRGGITYYADSVKGRFTISRDNAKNTVYLQMNSLKPEDTAVYYCARTDVYWYGYPYDYWGQGTQVTVSS | high polyreactivity |
| QVQLVESGGGLVQAGGSLRLSCAASGSILSYNAMGWSRQAPGKERELVATITGTGGSTRYADSVKGRFTISRDNAKNTVYLQMNSLKPEDTAVYYCATAAWWYYRIYHEFGYWGQGTQVTVSS | high polyreactivity |
| QVQLVESGGGLVQAGGSLRLSCAASGSIFRLNTMGWYRQAPGKERELVAAIFTSGGSTYADSVKGRFTISRDNAKNTVYLQMNSLKPEDTAVYYCAGMDYWGQGTQVTVSS | low polyreactivity |
| QVQLVESGGGLVQAGGSLRLSCAASGNIFYGYAMGWYRQAPGKERELVARINWSGSRTYYADSVKGRFTISRDNAKNSVYLQMNSLKPEDTAVYYCNTSTSRVPGNGDYWGQGTQVTVSS | high polyreactivity |
| QVQLVESGGGLVQAGGSLRLTCAASGRPFGKNGMGWYRQAPGKEREWVAAISLSGGSTYYADSVKGRFTISRDYAKNTVYLQMNSLKPEDTAVYYCAAYGIRGPVYQYYFWGQGTQVTVSS | low polyreactivity |
| QVQLVESGGGLVQAGGSLRLSCAASGRTFSWNAMGWYRQAPGKERELVAAISNSGGSTYYADSVKGRFTISRHNAKNPVYLQMNSLKPEDTAVYYCAADDIYKYYQYYAFPYYRYDYWGQGTQVTVSS | low polyreactivity |
| QVQLVESGGGLVQAGGSLRLSCAASGGIFSYAMGWSRQAPGKERELVADINSDGSTTYADSVKGRFTISRDNAKNTVYLQMNSLKPEDTAVYYCAVDVSVNWPLLERYEYWGQGTQVTVSS | low polyreactivity |
| QVQLVESGGGLVQAGGSLRLICAASGLTFDYYDMGWYRQAPGKERELVASITWRGSSTYYADSVKGRFTISRDNAKNTVYLQMISLKPEDTAVYYCAARYRWSEWRPYYYWGQGTQVTVSS | high polyreactivity |
| QVQLVESGGGLVQAGGSLRLSCAASGITFYEYAMGCYRQAPGKERELVATITSGGNTNYADSVKGRFTISRDNAKNTVYLQMNSLKPEDTAVYYCNKEWDGDGYTDDCDYDYWGQGTQVTVSS | low polyreactivity |
| HVQLVESGGGLVQAGGSLRLSCAASGGIFFDNAMGWYRQGPGKERELVAAIRGDSGSTYYADSVKGRFTISRDNAKNTVYLQMNSLKPEDTAVYYCAAALRDYYPGGEYYSQYEYWGQGTQVTVSS | low polyreactivity |
| QVQLVESGGGLVQAGGSLRLSCAASGSIFYGNAMGWYRQAPGKEREFVAGISWYGGSTYYADSVKGRFTISRDNAKNTVYLQMNSLKPEDTAVYYGATVADEPRAYSGYEESDYWGQGTQVTVSS | low polyreactivity |
| QVQLVESGGGLVQAGGRLRLSCAASGSIFTPNAMGWYRQAPGKEMELVAAISSSSDRTYYADSVKGRFTISRDNAMITVYLQMNSLNPEDTAVYYCAAETNTWYLFDFWGQGTQVTVSS | high polyreactivity |
| QVQLVESGGGLVQAGGSLRLSCAASGRTYGYNAMGWYRQAPGKERELVAAISRSGDSTYYADSVKGRFTISRDNAKNTVYLQMNSLKPEDTAVYYCATRYVTTGYDYWGQGTQVTVSS | low polyreactivity |

| Sequence | polyreactivity (PSR sort gate) |
| --- | --- |
| QVQLVESGGGLVQAGGSLRLSCAASGFTIHYNAMGWYRQAPGKERELVATISKSAGITSYADSVKGRFTISRDNAKNTVYLLMNSLKPEDTAVYYCAADKSYRRVYYWGQGTQVTVSS | low polyreactivity |
| QVQLVESGGGLVQPGGSLSLSCAASGFTFTYYAMGWYRQAPGKEMELVAAISWSGDSTYYADSVKGRFTISRDNAKNNVYLQMNSLKPEDSAVYYCGSEYSHTYDYWGQGTLVTVSS | low polyreactivity |
| QVQVVESGGGLVQAGGSLRLSCAASGRTYRSNAMGWYRQAPGKERELVAAIRTSGGSTYYADSVKGRFTISRDNAKNTVYLQMNSLKPEDTAVYYCNAELRDLEFDYWGQGTQVTVSS | low polyreactivity |
| QVQLVESGGGLVQAGGSLRLSCAASGFIFYGYAMGWYRQAPGKERELVAGISTVGSTNYADSVKGRFTISRDNAKNTVYLQMNSLKPEDSAVYYCAVVDVEDHVGHWGQGTQVTVSS | low polyreactivity |
| QVQLVESGGCLVQAGGSLRLSCAASGSSFSRYTMGWYSQAPGKERELVAVISDSSGRTYYADSVKGRFTISRDTAKNTVYLQMNSLKPEDTAVYYCAAEYSDIYEYCGQGTQVTVSS | low polyreactivity |
| QVQLLESGGGLLQAGGSLRLSCAASGSIFDFNAMGWYRQAPGKERELVAAITYIGDSTYYADSVKGRFTISRDNAKNTVYLQMNILKPEDTAVYYCANYRYPSRQYSFPLGYDYWGQGTQVTVSS | high polyreactivity |
| QVQLVESGGGLVQAGGSLRLSCAASGSIFNYNTMGWYRQAPGKERELVADISWSGGSTYYADSVKGRFTISRDNAKNTVYLQMNSLKPEDTAVYYCAADFGLFPYVGTGYYFWGQGTQVTVSS | low polyreactivity |
| QVQLVESGGGLVQAGGSLRLSCAASGSIFNGYVMGWYRQAPGKERELVAAISSGGRTYYADSVKGRFTISRDNAKNTVYLQMNSLKPEDTAVYYCNAYWLHYPSRVRKITAYDYWGQGTQVTVSS | low polyreactivity |
| QVQLVETGGGLVQAGGSLRLSCAASGSTFYDNAMGWYRQAPGKERELVAAITRSGTRTYYADSVKGRFTISRDNAKNTVYLQMNSLKPEDTAVYYCNVVLYSYVTYRIITHGTYGYWGQGTQVTVSS | high polyreactivity |
| QVQLVESGGGLVQAGGSLRLSCAASGFTFARNAMGWYRPAPGKERELVAGITSRGSSTSYADSVKGRFTISRDNAKNTVYLQMNSLKPEDTAVYYSAADRYSAYLYWDEYWGQGTQVTVSS | high polyreactivity |
| QVQLVESGAGLVQAGGSLRLSCAASGLIFSVYGLGWYRQEPGKERELVAAISSRGGSTYYADSVKGRFTISRVNANYTVYLQMNSLKPEDTAFYYCARRAYREHHRCQYYYWGQGTQLTVSS | high polyreactivity |
| QVQLVESRGGLVQAGGSLRLSCAASAFTFDYYVMGWYIQAPGKERELVAAISLRSGRTYYADSVKGRFTISRDNAKNTVYLQMNSLKPEDTAVYYCAAESRGVGAYYYWGQGTQLTVSS | high polyreactivity |
| QVQLVESGGGLVQAGGSLRLSCAASGSTFTTYGMGWYRQAPGKERELVAAISLSSGRTYYADSVKGRFTISRDNAKNTVYLQMNSLKPEDTAVYYCNKRSQKPSQYKPYGYWGQGTQVTVSS | high polyreactivity |
| QVQLVESGGGLVQAGGSLRLSCAASGSTFFYNAMGWYRQAPGKERELVAGITSGGSTYYADSVKGRFTISRDNAKNTVYLQMNSLKPEDTAVYYCAVDVPPWDYDYWGQGTQVTVSS | low polyreactivity |
| QVQLVESGGGLVQAGGSLRLSCAASGRIFKYYAMGWYRQAPGKERELVARISSSGGSTYYADSVKGRFTISRDNAKNTVYLQMNSLKPEDTAVYYCNARYYSTKYFLGDYWGQGTQVTVSS | high polyreactivity |
| QVQLVESGGGLVQAGGSLRLSCAASGSIFGWYAMGWYRQAPGKERELVAGISWSGANTYYADSVKGRFTISRDNAKNTVYLQMNSLKPEDTAVYYCAAGPGLYYSRRYGYWGQGTQVTVSS | high polyreactivity |
| QVQLVESGGGLVQAGGSLRLSCAASGFTFNDYAMGWYRQAPGKERELVAAIDWSGGRTYYADSVKGRFTISRDNAKNTVYLQMNSLKPEDTAVYYCAAVLYSRMYWYRLDYWGQGTQVTVSS | low polyreactivity |
| QVQLVESGGGIVQAGGSLRLSCAASGFIFRYYVMGSYRQAPGKERELVASISRSGTSTYYADSVKGRFTISRDNAKNTVYLQMNSLKPEDTAVYYCAKGVGRGFGSATGYYWGQGTQVTVSS | high polyreactivity |
| QVQLVESGGGLVQAGGSLRLSCAASGRTFNLYAMGWYRQAPGKERELVAAIRYSDTSTYYADSVKGRFTISRDNAKNTVYLQMNSVKPEDTAVYYCAAYPGYKGGNYGYWGQGTKVTVSS | low polyreactivity |
| QVQLVESGGGLVQAGGSLRLSCAASGLIFGRYAMGWYRQAPGKERELVAAINRNGGSTYYADSVKGRFTISRDNAKNTVYLQMNSLKPEDTAVYYCAAQYRSSRGHYDYWGQGTQVTVSS | high polyreactivity |
| QVQLVESGGGLVQAGGSLRLSCAASGSIFFTYAMGWYRQAPGKERELVAVISSNGARTYYADSVKGRFTISRDNAKNTVYLQMNSLKPEDPAVYYCAARSQGNYGWGQGTQVTVSS | high polyreactivity |
